Results reported in US20250066499A1 (SUNSHINE GUOJIAN PHARMACEUTICAL SHANGHAI, published 2025).

Assays:
[1] = target: T1, CD73-ND-N187A (human, UniProt P21589 27-317); assay: ELISA, biotinylated antigen on streptavidin plate
T1 construct: Alanine mutant of CD73-ND
T1 sequence: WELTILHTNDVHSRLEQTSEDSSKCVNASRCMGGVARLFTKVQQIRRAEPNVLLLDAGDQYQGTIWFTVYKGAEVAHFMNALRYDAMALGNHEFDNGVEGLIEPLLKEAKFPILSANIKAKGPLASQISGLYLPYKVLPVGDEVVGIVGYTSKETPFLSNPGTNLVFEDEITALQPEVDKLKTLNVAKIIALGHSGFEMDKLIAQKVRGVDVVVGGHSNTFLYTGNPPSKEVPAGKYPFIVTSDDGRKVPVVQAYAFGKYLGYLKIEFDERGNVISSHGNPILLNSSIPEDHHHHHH
Procedure: (§1) The ELISA plates were coated with SA protein diluted to 1.5 μg/mL in coating buffer (50 mM carbonate coating buffer, pH 9.6) and incubated overnight at 4° C. The supernatant was discarded, and the plates were washed three times with PBST. Then, 5% skimmed milk powder prepared with PBS was added for blocking and the plates were incubated for 2 h at 37° C. After washing the plates once with PBST, CD73-biotin protein (prepared by biotinylating CD73-His protein according to the EZ-Link NHS-Biotin Reagent instructions) was diluted to 0.5 μg/mL and added at 100 μL/well for incubation at room temperature for 1 h. The plates were washed three times with PBST, and the prepared murine-derived monoclonal antibodies against human CD73 were serially diluted with 1% BSA buffer prepared with PBST and added to the ELISA plates at 100 μl/well. The plates were incubated at 37° C. for 1 h. After washing the plates three times with PBST, HRP-labeled goat anti-mouse IgG secondary antibody was added and the plates were incubated for 30 min at 37° C. After washing the plates three times with PBST, the residual droplets were patted dry on absorbent paper as much as possible. Then, 100 μl of TMB color developing solution was added to each well, and the plates were incubated in the dark at room temperature for 5 min for color development. Subsequently, 50 μl of 2M H₂SO₄ stop solution was added to each well to terminate the substrate reaction. The OD values were read at 450 nm using a multimode microplate reader to analyze the binding ability of the tested antibodies to the target antigen human CD73-His.
(§2) Referring to the experimental method in Example 3, the affinity of 48A11-HuV33 for various mutant proteins of CD73-ND was determined. The SA protein was diluted to 1 μg/mL for coating the ELISA plates, and the biotinylated CD73 protein (CD73-biotin) was used at a concentration of 0.1 μg/mL.

[2] = target: T2, CD73-ND-his (human, UniProt P21589 27-317); assay: ELISA, biotinylated antigen on streptavidin plate
T2 construct: Biotinylated and captured on streptavidin in the ELISA
T2 sequence: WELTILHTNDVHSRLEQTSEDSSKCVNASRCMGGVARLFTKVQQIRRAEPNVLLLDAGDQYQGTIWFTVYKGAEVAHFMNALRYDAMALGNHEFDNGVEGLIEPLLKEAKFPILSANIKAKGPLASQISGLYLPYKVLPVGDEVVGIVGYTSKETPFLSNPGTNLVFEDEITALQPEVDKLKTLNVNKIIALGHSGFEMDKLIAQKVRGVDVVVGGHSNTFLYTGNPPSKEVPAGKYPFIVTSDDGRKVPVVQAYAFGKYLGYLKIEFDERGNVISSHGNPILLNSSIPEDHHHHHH
Procedure: as §1, §2

[3] = target: T3, CD73-ND-V140A (human, UniProt P21589 27-317); assay: ELISA; decline multiple of EC50 against CD73-ND
T3 construct: Alanine mutant of CD73-ND
T3 sequence: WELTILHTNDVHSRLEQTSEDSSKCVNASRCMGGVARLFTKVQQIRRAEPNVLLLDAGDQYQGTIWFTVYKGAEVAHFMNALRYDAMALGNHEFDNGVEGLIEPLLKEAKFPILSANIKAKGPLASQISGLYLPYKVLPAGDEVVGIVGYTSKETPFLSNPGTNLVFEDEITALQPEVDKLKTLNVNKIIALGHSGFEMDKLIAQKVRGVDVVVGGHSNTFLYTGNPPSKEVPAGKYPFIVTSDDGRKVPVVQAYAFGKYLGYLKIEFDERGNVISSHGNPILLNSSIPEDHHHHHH
Procedure: as §1, §2

[4] = target: T4, CD73-ND-D142A (human, UniProt P21589 27-317); assay: ELISA; decline multiple of EC50 against CD73-ND
T4 construct: Alanine mutant of CD73-ND
T4 sequence: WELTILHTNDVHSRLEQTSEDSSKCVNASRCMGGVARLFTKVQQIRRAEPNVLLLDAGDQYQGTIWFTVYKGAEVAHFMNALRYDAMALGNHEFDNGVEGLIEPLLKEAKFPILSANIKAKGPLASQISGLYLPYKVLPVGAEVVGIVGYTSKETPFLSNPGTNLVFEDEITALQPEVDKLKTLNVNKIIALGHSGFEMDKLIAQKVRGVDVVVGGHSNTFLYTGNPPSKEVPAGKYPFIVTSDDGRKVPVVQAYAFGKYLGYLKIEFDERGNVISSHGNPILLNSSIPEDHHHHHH
Procedure: as §1, §2

[5] = target: T2, CD73-ND-his; assay: ELISA; decline multiple of EC50 against CD73-ND
Procedure: as §1, §2

[6] = target: T5, CD73-ND-L184A (human, UniProt P21589 27-317); assay: ELISA; decline multiple of EC50 against CD73-ND
T5 construct: Alanine mutant of CD73-ND
T5 sequence: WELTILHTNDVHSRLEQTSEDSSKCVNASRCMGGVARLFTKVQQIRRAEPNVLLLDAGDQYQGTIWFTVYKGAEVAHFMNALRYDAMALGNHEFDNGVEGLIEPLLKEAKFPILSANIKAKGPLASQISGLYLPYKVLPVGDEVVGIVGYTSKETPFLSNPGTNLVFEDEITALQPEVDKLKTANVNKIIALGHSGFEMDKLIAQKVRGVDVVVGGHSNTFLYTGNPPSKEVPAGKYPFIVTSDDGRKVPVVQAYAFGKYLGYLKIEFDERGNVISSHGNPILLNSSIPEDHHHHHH
Procedure: as §1, §2

[7] = target: T6, CD73-ND-P139A (human, UniProt P21589 27-317); assay: ELISA; decline multiple of EC50 against CD73-ND
T6 construct: Alanine mutant of CD73-ND
T6 sequence: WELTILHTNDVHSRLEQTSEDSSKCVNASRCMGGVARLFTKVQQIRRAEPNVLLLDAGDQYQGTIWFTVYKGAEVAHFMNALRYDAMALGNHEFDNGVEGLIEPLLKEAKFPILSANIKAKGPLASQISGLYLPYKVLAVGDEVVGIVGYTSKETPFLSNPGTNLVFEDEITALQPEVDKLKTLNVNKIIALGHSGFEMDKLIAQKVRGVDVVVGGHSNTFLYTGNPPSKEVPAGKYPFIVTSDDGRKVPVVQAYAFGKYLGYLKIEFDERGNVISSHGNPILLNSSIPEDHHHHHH
Procedure: as §1, §2

B1: 48A11-HuV33 (antibody, human IgG4, V domains shown)
VH: QVQLVQSGAEVKKPGASVKVSCKASGYTFTSYWMHWVRQAPGQGLEWIGEINPSIGRTNYNEKFKSRVTLTRDTSTSTAYMELSSLRSEDTAVYYCARRVYGTMDYWGQGTLVTVSS
VL: DIQMTQSPSSLSASVGDRVTITCKASQDINSYLSWFQQKPGKSPKLLIYRANIWVDGVPSRFSGSGSGQDYTFTISSLQPEDIATYYCLQYDELYTFGQGTKVEIK
notes: Humanized
EC50 [1]: 0.105 nM | EC50 [2]: 0.091 nM | Ratio(EC50) [3]: 0.6 fold | Ratio(EC50) [4]: 1.9 fold | Ratio(EC50) [5]: 1 fold | Ratio(EC50) [6]: 3.4 fold | Ratio(EC50) [7]: 24.4 fold
